The supplement of paper PMC12042874
± gives the uncertainty stated by the source.

Test: amyloid nucleation score (Sup35N fusion, yeast selection) (log enrichment); library NNK1; higher = more nucleation; inactive = no reads after selection
Procedure, shortened: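 The nucleation score, computed with DiMSum, is the log enrichment of output over input reads, centred on the mode score of non-aggregating sequences. Sequences with under 100 input reads were dropped. Reads were generated by Illumina sequencing of plasmid inserts from psi-negative yeast with Sup35N fused to peptides of 20 random codons, induced with 100 μM copper sulfate for 24 hours and grown 7 days at 30°C on medium lacking adenine and uracil.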

Point of comparison: RKFSNLVGRYALFICLKSLT, amyloid nucleation score -0.28 ± 0.3. Against it:
- DWGKSSPLLKVLLMQSRLPC — within error, -0.073 ± 0.45
- LCTRFWDTMYLSSGYFGFLC — higher, 1.03 ± 0.46
- FLDMVVMGCEFRPSGGFSSV — within error, -0.156 ± 0.38
- SVNRCFSAFLSQAIT — within error, 0.042 ± 0.53
- CMWSRRWGTLLASILVLSYG — within error, 0.081 ± 0.34
- RNCLFVFGSLGYCSERAYKL — higher, 6.7 ± 0.087
- FFGNLVRWSNGYGDHCYSLN — higher, 2.51 ± 0.22
- ERSSAPECNFKYISYTGKS — within error, -0.881 ± 0.48
- PSHFHHQ — within error, 0.305 ± 0.32
- KYKESMYLRLCFRYVWTNYS — within error, 0.441 ± 0.61
- MMIWNSNSEQVRCIIGMPWL — higher, 4.79 ± 0.085
- YFLFFFHVDCLRNASC — within error, -1.25 ± 2.7
- LLKIGVA — within error, -0.465 ± 1.5
- NNSSHGCRNVRNSQMSFVPQ — within error, -0.165 ± 0.75
- GWIVAMRKR — within error, 0.236 ± 1.6
- HVVVRRIY — within error, -0.065 ± 0.34
- YLNSFLYVMLFLVPDRSVTR — higher, 6.18 ± 0.068
- YLLLLDGGPSPVLAIRHVNG — within error, -0.989 ± 0.76
- LLAFL — within error, -0.704 ± 0.55
- SYVRLFERFWVNFRSHMGNC — within error, 0.014 ± 0.52
- AAFDRNSEGNAPMPVMCPCI — within error, 0.34 ± 0.75
- FCVYKAVCIHYPSGFPLTIG — within error, -0.238 ± 0.31
- MIWAEQCVMWPGACVMVIK — higher, 4.64 ± 0.09
- CSGYDGNSSYNGSNPVSFND — within error, 0.056 ± 0.77
- LVMFMNMSLRYNRGLSLVKR — within error, -0.252 ± 0.26
- CGHMR — within error, 0.327 ± 0.33
- NSRNVCFWYVNCCLVHGILG — higher, 7.543 ± 0.067
- FGLRYSMCHHGRGHLKWLYT — higher, 1.35 ± 0.65
- IRMFSTLLACNLVIGGCLAN — higher, 6.482 ± 0.053
- LWEIRILLL — within error, -0.994 ± 0.68
- VDMNAEKTSSDERLWERRRT — within error, 0.606 ± 0.65
- ANNNEYRFWTTSYW — within error, 0.041 ± 1.4
- FREFWPGLYYTTPYKLSNHC — lower, -2.14 ± 1.1
- LTKASHVRLNNVGV — within error, 0.034 ± 0.6
- VVVFSNYNFVGKCIHVNSEL — higher, 7.351 ± 0.07
- RSFPSTFLLVLLQDSRC — higher, 2.17 ± 0.24
- PKCLNESMVGRRWLAIMGRV — within error, 0.328 ± 0.72
- RGEVHSIWTPPLHKGQEMGI — within error, 0.048 ± 0.78
- RMMLHRGLYYNVMLNYSLI — higher, 0.86 ± 0.47
- GSQIWW — higher, 0.517 ± 0.46
- DRLWKSTWKGMTRLMRRSAE — within error, -0.968 ± 0.48
- SRMWR — within error, -0.068 ± 0.45
- NRNKVR — within error, -0.2 ± 1.1
- INRFEG — within error, -0.385 ± 0.68
- HPMITRFLAD — within error, 0.413 ± 1.4
- FADAASNPNAII — within error, 0.071 ± 0.4
- FNYYYLVEWGDGASIRIASI — within error, -0.473 ± 1.4
- LRGIDRTALGSGSERYLCLL — within error, -0.253 ± 0.59
- NSATRREPSVVGLYWSVR — within error, -2.42 ± 2.7
- TIDCMLWGYFRNDSTKCTAA — within error, 0.205 ± 0.47
- YIPTCAGDWLQFNYYNLMCW — within error, 0.149 ± 0.38
- WESSAAVDTCTILKMTEKVG — within error, 0.579 ± 1.2
- NSMLNDCHDKLIIGFSEGWS — within error, 0.091 ± 0.47
- NYFIVLSR — higher, 2.09 ± 0.43
- NCSGVFKGKSLTSCGT — within error, -0.038 ± 0.21
- LVWLY — within error, 0.493 ± 0.68
- KNQKMVYTRIGLPGFG — within error, -0.42 ± 0.56
- VGPIFLHTLRRSVN — within error, -0.532 ± 0.83
- FPCALSYAGMVSTVRALRKF — within error, 0.228 ± 0.8
- SYFKCMIILSRMLLVVLEI — within error, -0.272 ± 0.65

In the case of RADIKAIMLNYMIFA, the amyloid nucleation score is reported as “inactive”.
For GWCRG, the amyloid nucleation score was “inactive”.
